Reference: PMC6722581
pKd: −log10 of the molar value.

Tests used:
[1] = molecular target: SLAM (Canis lupus familiaris) (UniProt Q95MM9); details: cited from earlier work
[2] = molecular target: head domain of measles virus hemagglutinin, Edmonston vaccine strain (measles virus, Edmonston strain) (UniProt P08362); experiment: SPR
[3] = molecular target: head domain of measles virus hemagglutinin, IC-B wild-type strain (measles virus, IC-B strain) (UniProt Q786F2); experiment: SPR
Sequence of UniProt Q786F2 (Q786F2 149-617): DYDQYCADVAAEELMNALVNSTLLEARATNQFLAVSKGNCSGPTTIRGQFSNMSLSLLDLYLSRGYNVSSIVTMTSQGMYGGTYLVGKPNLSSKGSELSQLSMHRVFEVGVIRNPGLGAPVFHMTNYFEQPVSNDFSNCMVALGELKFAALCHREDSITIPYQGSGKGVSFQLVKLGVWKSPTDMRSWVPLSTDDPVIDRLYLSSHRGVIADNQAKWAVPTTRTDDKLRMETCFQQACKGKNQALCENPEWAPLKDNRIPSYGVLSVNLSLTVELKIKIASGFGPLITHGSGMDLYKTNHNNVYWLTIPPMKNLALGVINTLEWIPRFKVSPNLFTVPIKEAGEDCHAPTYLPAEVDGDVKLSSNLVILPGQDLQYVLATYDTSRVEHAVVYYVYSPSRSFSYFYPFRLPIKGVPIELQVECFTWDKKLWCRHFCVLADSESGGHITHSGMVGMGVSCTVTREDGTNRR

Sequence of UniProt P08362 (P08362 149-617): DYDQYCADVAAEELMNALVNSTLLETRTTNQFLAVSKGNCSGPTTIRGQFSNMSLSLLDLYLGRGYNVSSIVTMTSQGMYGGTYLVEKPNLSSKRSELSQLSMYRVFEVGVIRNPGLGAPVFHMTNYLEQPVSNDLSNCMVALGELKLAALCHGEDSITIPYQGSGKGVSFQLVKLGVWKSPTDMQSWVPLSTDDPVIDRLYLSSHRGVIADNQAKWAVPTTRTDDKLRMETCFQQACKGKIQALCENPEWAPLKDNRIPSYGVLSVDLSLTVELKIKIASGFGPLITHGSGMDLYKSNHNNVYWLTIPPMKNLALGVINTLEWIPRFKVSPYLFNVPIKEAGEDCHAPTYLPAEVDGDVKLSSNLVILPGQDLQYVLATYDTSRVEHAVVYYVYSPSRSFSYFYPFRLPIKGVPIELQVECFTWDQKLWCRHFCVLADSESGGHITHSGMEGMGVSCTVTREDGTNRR
Sequence of UniProt Q95MM9 (Q95MM9 27-342): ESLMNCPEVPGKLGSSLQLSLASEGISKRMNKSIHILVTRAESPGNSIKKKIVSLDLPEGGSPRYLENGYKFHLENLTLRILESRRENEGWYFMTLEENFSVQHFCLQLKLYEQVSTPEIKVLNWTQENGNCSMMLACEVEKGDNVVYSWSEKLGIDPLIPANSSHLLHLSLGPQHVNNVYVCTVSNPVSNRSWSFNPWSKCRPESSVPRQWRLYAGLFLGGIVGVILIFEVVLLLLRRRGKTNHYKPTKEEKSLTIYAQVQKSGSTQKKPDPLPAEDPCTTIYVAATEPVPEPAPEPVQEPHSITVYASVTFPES

Substance | pKd [1] | pKd [2] | koff [2] [s⁻¹] | kon [2] [M⁻¹ s⁻¹] | pKd [3] | koff [3] [s⁻¹] | kon [3] [M⁻¹ s⁻¹]
CDV-A75/17 hemagglutinin (from UniProt Q65999) | 5.10 |  |  |  |  |  | 
soluble SLAM ectodomain (V-set and C2) from cotton-top tamarin (domain or fragment) |  | 7.33 | 0.000952 | 20400 | 6.61 | 0.00241 | 9890
